This is an account of results in patent US20060183195A1 (published 2006).

Residue numbers refer to the chain shown, from its start.

As a reminder, the koff is the first-order rate constant of dissociation. The term kon denotes the rate constant with which the complex forms.

Assay [1] deals with T1, recombinant soluble human CD4 (human, UniProt P01730 26-396, limits assumed).
T1 construct: Soluble recombinant antigen used in ELISA and on or over the sensor chip; also called rCD4; sCD4
The assay can be described thus: SPR, sCD4 amine-coupled to sensor chip, antibody flowed over. For orientation: SPR reads the build-up and loss of mass on a sensor chip optically.

The target in assay [2] is T1, recombinant soluble human CD4. Nature of the assay: rCD4 column of Table 21 (same values as Table 19: BIAcore, rCD4 on chip). The method, then: (§1) The rate and equilibrium constants presented in Table 19 were determined with a BIAcore, using antigen (rCD4) coupled to the sensor chip and flowing mAb over. These constants were derived from at least three independent experiments using purified mAbs.

Assay [3] concerns the target T2, native human CD4 on the cell surface (human, UniProt P01730 26-458).
T2 construct: whole, on cells; also called native CD4; CD4 on SupT1 cells
The assay can be described thus: flow cytometry, serial dilutions on SupT1 cells, half-maximal fluorescence. How it is done: (§2) The avidity and affinity determinations described above were performed with recombinant CD4 (rCD4). To determine the avidity of the human monoclonal antibodies for native CD4 (nCD4). […] Specifically, serial dilutions of antibody were incubated with SupT1 cells for 6 hr on ice, washed and detected any bound antibody with FITC-goat anti-human Fey.
(§3) *Human monoclonal antibodies were incubated in serial dilutions with SupT1 cells for 6 hrs, washed twice and incubated with FITC-conjugated goat anti-human Fey antisera, washed and fixed. The Ka was calculated from the concentration of antibody yielding one-half of the maximum fluorescence as determined from a four-parameter fit.
For orientation: In flow cytometry, cells or beads pass a laser one at a time.

Assay [4] has as its target T1, recombinant soluble human CD4. Nature of the assay: BIAcore, rCD4 coupled to chip, mAb flowed over. The method, then:
as §1

In assay [5] the target is T2, native human CD4 on the cell surface. The assay can be described thus: flow cytometry, serial dilutions on SupT1 cells. The method, then:
as §2, §3

Assay [6] addresses T1, recombinant soluble human CD4. Nature of the assay: BIAcore, mAb captured on anti-human IgG Fc chip, rCD4 flowed over. How it is done: The rate and equilibrium constants presented in Table 18 were determined with a BIAcore (Pharmacia Biosensor) using goat anti-human IgG (Fc-specific) coupled to the sensor chip and flowing a saturating concentration of mAb over followed by various concentrations of antigen (rCD4). These constants were derived from three experiments using purified mAbs.

The target in assay [7] is T2, native human CD4 on the cell surface. The assay can be described thus: ratio of Ka on rCD4 (BIAcore) to Ka on nCD4 (flow cytometry, SupT1). The method, then:
as §1, §2, §3

For assay [8], the target named is T3, cynomolgus monkey CD4 on peripheral blood lymphocytes (cynomolgus monkey, UniProt P79185 26-458).
T3 construct: whole, on cells; also called cynomolgus CD4 cells
Nature of the assay: two-colour flow cytometry on peripheral blood lymphocytes. The method, then: (§4) It is further desirable for some purposes that the animal be a non-human primate that expresses CD4 comprising a cross-reactive epitope with human CD4 such that it is recognized by the monoclonal antibody. […] Peripheral blood lymphocytes were isolated from whole blood of chimpanzee, rhesus, and cynomolgus monkeys. […] The stained cells were then analyzed by flow cytometry to determine if each of the human monoclonal antibodies bound to endogenous CD4 on the surface of lymphocytes from each of these three non-human primates.

Assay [9] addresses T4, chimpanzee CD4 on peripheral blood lymphocytes (chimpanzee, UniProt P16004 26-458).
T4 construct: whole, on cells; also called chimpanzee CD4 cells
The description is as above. The method, then:
as §4

Assay [10] deals with T5, rhesus monkey CD4 on peripheral blood lymphocytes (rhesus monkey, UniProt P16003 26-458).
T5 construct: whole, on cells; also called rhesus CD4 cells
The description is as above. How it is done: as §4

The target of assay [11] is T1, recombinant soluble human CD4. Nature of the assay: association and dissociation rates of human CD4 antigen for the antibody; method not named.

T3 sequence (P79185 26-458): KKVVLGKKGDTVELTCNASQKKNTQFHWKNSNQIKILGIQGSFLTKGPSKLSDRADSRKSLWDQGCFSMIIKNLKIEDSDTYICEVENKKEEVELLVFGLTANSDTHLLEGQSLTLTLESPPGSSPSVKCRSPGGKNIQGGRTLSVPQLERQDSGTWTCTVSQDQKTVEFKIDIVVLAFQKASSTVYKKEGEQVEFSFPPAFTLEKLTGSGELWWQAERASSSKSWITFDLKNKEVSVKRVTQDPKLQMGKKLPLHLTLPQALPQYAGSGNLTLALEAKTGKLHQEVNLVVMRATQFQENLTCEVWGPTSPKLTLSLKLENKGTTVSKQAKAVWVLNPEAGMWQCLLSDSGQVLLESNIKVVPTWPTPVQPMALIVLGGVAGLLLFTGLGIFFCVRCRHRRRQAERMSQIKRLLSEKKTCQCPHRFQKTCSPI
T5 sequence (P16003 26-458): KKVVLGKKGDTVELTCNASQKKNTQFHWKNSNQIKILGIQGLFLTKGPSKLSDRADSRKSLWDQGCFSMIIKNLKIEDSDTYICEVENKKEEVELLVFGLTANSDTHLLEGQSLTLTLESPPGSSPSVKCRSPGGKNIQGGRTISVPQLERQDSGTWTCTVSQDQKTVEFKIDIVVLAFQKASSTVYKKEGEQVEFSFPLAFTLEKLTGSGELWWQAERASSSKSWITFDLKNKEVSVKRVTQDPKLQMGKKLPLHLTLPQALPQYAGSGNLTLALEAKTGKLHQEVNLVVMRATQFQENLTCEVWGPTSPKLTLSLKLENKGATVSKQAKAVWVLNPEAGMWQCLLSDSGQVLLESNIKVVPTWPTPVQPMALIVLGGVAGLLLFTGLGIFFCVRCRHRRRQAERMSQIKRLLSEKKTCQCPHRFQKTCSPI
T4 sequence (P16004 26-458): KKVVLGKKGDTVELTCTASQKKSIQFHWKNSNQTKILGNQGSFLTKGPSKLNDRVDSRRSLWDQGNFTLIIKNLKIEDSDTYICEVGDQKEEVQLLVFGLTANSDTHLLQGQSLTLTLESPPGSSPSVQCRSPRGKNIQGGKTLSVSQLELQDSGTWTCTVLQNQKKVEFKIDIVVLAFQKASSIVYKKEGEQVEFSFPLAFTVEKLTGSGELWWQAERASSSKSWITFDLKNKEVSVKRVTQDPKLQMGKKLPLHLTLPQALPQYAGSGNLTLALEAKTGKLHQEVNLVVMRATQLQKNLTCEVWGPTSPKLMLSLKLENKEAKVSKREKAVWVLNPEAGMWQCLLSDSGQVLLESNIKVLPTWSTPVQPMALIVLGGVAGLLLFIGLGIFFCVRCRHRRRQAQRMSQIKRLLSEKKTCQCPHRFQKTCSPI

B1: 6G5.1 (antibody, human IgG1, V domains shown)
VH: QVQLQQWGAGLLKPSETLSLTCAVYGGSFSGYYWSWIRQPPGKGLEWIGEINHSGSTNYNPSLKSRVTISVDTSKNQFSLKLSSVTAADTAVYYCARVINWFDPWGQGTLVTVSS
VL: DIQMTQSPSSVSASVGDRVTITCRASQDISSWLAWYQHKPGKAPKLLIYAASSLQSGVPSRFSGSGSGTDFTLTISSLQPEDFATYYCQQANSFPYTFGQGTKLEIKR
notes: Human IgG1 kappa from a hybridoma of an HC2/KCo5 transgenic mouse; VH4-34/JH5; VkL19/Jk2
B1: the Ka was 1.1e+10 M⁻¹ in assay [1]; 1.1e+10 M⁻¹ in assay [2]; 1e+09 M⁻¹ in [3]; 1.1e+10 M⁻¹ in assay [4]; greater than 1e+09 M⁻¹ in [5]; 1.4e+08 M⁻¹ in [6]. The koff was 1e-05 s⁻¹ in assay [1], 1e-05 s⁻¹ in [4] and 0.00069 s⁻¹ in [6]. Besides, the kon in assay [1] is 110000 M⁻¹ s⁻¹; in assay [4], 110000 M⁻¹ s⁻¹; in assay [6], 93000 M⁻¹ s⁻¹. The “Ratio of Ka (rCD4/nCD4)” value in assay [7] came to 5.9.

B2: 10C5.6 (antibody, human IgG1, V domains shown)
VH: B1 VH
VL: DIQMTQSPSSVSASVGDRVTITCRASQDISSWLAWYQHKPGKAPKLLIYAASSLQSGVPSRFSGSGSGTDFTLTISSLQPEDFATYYCQQANSFPYTFGQGTKLEIK
notes: Human IgG1 kappa from a hybridoma of an HC2/KCo5 transgenic mouse
B2: the Ka is 4.5e+10 M⁻¹ in [1]; 4.5e+09 M⁻¹ in [2]; 1e+09 M⁻¹ in assay [3]; 4.5e+09 M⁻¹ in assay [4]; greater than 1e+09 M⁻¹ in [5]; 1.3e+08 M⁻¹ in assay [6]. Further, the koff worked out at 1.6e-05 s⁻¹ in assay [1], 1.6e-05 s⁻¹ in assay [4] and 0.00071 s⁻¹ in assay [6]. Besides, the kon in assay [1] stood at 74000 M⁻¹ s⁻¹; in assay [4], 74000 M⁻¹ s⁻¹; in [6], 94000 M⁻¹ s⁻¹. Further, the binding result in assay [8], in assay [9] and in assay [10] was “binds” in each case. Also, the “Ratio of Ka (rCD4/nCD4)” value in assay [7] came to 2.5.

B3: 4D1.4 (antibody, V domains shown)
VH: EVQLVQSGAEVKKPGESLKISCKGSGYSFTGYWIGWVRQMPGKGLEWMGIIYPGDSDTTYSPSFQGQVTISADKSISTAYLQWSSLKASDTAMYYCARDQLGLFDYWGQGTLVTVSS
VL: B1 VL with V11L, D28G, H38Q, G41E, L46S, A50S, A91Y, N92D, F94Y
notes: as for B2
As for B3, the Ka in [1] was 2.3e+09 M⁻¹; in assay [2], 2.3e+09 M⁻¹; in [3] it was 2e+09 M⁻¹; in assay [4], 2.3e+09 M⁻¹; in assay [5], greater than 1e+09 M⁻¹; in assay [6], 7.3e+07 M⁻¹. In addition, the koff is 4.2e-05 s⁻¹ in assay [1], 4.2e-05 s⁻¹ in assay [4] and 0.0034 s⁻¹ in assay [6]. In addition, the kon in assay [1] came out at 98000 M⁻¹ s⁻¹; in assay [4], 98000 M⁻¹ s⁻¹; in assay [6], 250000 M⁻¹ s⁻¹. The “Ratio of Ka (rCD4/nCD4)” value in assay [7] was determined as 1.2.

B4: 2C5.1 (antibody, V domains shown)
VH: EVQLVQSGAEVKKPGESLKISCKGSGYRFTSYWIGWVRQMPGKGLEWMGIIYPGDSDTRYSPSFQGQVTISADKSISTAYLQWSSLKASDTAMYYCARAPTGDWFDPWGQGTLVTVSS
VL: B1 VL with V11L, D28G, H38Q, G41E, L46S, A91Y, F94Y, Y96P, Q100G, L104V
B4: the Ka in assay [11] was roughly 8e+07 M⁻¹.

B5: 4E4.2 (antibody, V domains shown)
VH: B4 VH
VL: DIQMTQSPSSLSASVGDRVTITCRASQGISSWLAWYQQKPDKAPKSLIYAASSLQSGVPSKFSGSGSGTDFTLTISSLQPEDFATYYCQQYNSYPPTFGGGTKVEIKR
As for B5, the Ka in assay [11] was roughly 9e+07 M⁻¹.
